Series [1] concerns the target T1, LmrR-Strep (Lactococcus lactis) (UniProt A2RI36).
T1 sequence: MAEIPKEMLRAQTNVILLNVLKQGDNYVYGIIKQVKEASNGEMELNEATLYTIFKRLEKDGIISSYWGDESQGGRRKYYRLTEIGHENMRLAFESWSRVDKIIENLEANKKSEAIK
Put plainly: MST. The conditions noted are these: MST: 20 mM Tris-HCl pH 8.0, 1 mM EDTA, 50 nM Cy5-DNA, 30 min incubation at 30 C; 30% LED, 40% laser power (30% laser for PlmrR); Hill fit.

Series [2] concerns LmrR-Strep (Lactococcus lactis). Put plainly: MST. The conditions noted are these: apparent Kd, MST: 20 mM Tris-HCl pH 8.0, 1 mM EDTA, 50 nM Cy5-DNA, 30 min incubation at 30 C, 30% LED, 40% laser power (30% laser for PlmrR), Hill fit.

Regarding “ACTACTTTACATTAAATTGAATTTTCAATTTCATTTTACTTCAAAATAATTTCAATAAATTTTTTGAGAAGATAATTATAACATTATTTTTTTTAGTAAACAAGCATTAATTGTTAATGCTGTTAAAGATTACAATAGTTAGTTTCATAAATGGTAAACTAACAAAAATATTGTAACGCTTTTTAAAGTTTAAGTCAACGATTTACGACGTTATTTGTATCTTCTTATGTTTTTATAAATTTAGAATTTAAAGTAAGGAATGAATCG (double strand) [PlmrCD no PadR (half of PadR motif deleted)]”, in series [1], the binding result is on record as “no binding”.

For the substance “CTCCTTGTTTTAGGACATTGAGCAAAATTACATTGGTTTGGGCTCGTAACATTTCTTTTGGTATTTCTGCCATTCTTTTTCCTTTCTATCATTTTAAACAAAGTATATTATACTTCACATTACTATGTAAGTCAAGGTACTTAAACTATTTATATAATATTTTATTTTTGACGACTTTCTACTATATAAGATAAGAAAAAATCATCTCCG (double strand) [PlmrR (lmrR promoter/operator region)]”, in series [1], the Kd was 1400 nM.

Take PlmrCD (lmrCD promoter/operator region): the Kd stood at 195 nM in series [2] (50 uM riboflavin) and 82.1 nM in series [2] (no riboflavin, Hill coefficient 1.78 +/- 0.17).

As for PlmrCD -62bp, the Kd in series [2] (no riboflavin) was 62 nM.

With PlmrR (lmrR promoter/operator region), the Kd in series [2] (50 uM riboflavin, 30% laser power) is 5120 nM; in series [2] (no riboflavin, Hill coefficient 2.43 +/- 0.19, 30% laser power), 1400 nM.

In the case of “TTCTAGAGTTAAATAATGTAAACTACTTTACATTAAATTGAATTTTCAATTTCATTTTACTTCAAAATAATTTCAATAAATTTTTTGAGAAGATAATTATAACATTATTTTTTTTAGTAAACAAGCATTAATTGTTAATGCTGTTAAAGATTACAATAGTTAGTTTCATAAATGGTAAACTAACAAAAATATTGTAACGCTTTTTAAAGTTTAAGTCAACGATTTACGACGTTATTTGTATCTTCTTATGTTTTTATAAATTTAGAATTTAAAGTAAGGAATGAATCG (double strand) [PlmrCD -62bp]”, in series [1], the Kd was 62 nM.

These data come from PMC4534193, “Binding of the Lactococcal Drug Dependent Transcriptional Regulator LmrR to Its Ligands and Responsive Promoter Regions” (PLoS ONE, 2015).
